This assay addresses T1, SARS-CoV-2 RBD, His-tagged, for antibody binding studies (SARS-CoV-2, UniProt P0DTC2).
T1 construct: source: HEK293F, transient, purified from supernatant (Ni-NTA agarose)
The experiment in a line: BLI. Conditions: both partners purified.

B1: COVA1-16 VH R100bS mutant (antibody, V domains shown)
VH: QVQLVQSGAEVKKPGASVKVSCKASGYTFTSYYMHWVRQAPGQGLEWMGIINSSGGSTSYAQKFQGRVTMTRDTSTSTVYMELSSLRSEDTAVYYCARPPRNYYDSSGYYQRAEYFQHWGQGTLVTVSS
VL: DIQLTQSPSSLSASVGDRVTITCQASQDISNYLNWYQQRPGKAPKLLIYDASNLETGVPSRFSGSGSGTDFTFTISSLQPEDIATYYCQQYDNPPLTFGGGTKLEIK
On to B1, for which the binding result is listed as “binds”.
